First the molecules themselves.
B1: Twister Ribozyme (parent)
chain: AACACUGCCAAUGCCGGUCCCAAGCCCGGAUAAAAGUGGAGGGGGCGG

Variants of B1 are the subject of this series. Put plainly: self-cleavage, relative activity (ratio to wild type); higher = more cleavage; co-transcriptional.
Turning to AACACUGCCAAAGACGGUCCCAAGCCCGGAUAAAAGUGGAGGGGGCGG, the self-cleavage was 0.997.
With AACACUGCCUAUGCCGGUCCCAAGCCCGGAUAAAAGUGGAGCGGGCGG, the self-cleavage came to 0.543.
With AACAUUGCCAAUGCCGGUCCCAAGCCCGGUUAAAAGUGGAGGGGGCGG the figure was 0.752; with AACACUGCCAAUGCCGGUCCCAAGCCCGGUUACAAGUGGAGGGGGCGG, 0.847; with AACACUGCCAAUGCCGGUCCCAAGCCCGGAUUAAGGUGGAGGGGGCGG, 0.746.
The result for AACACUGCCAAUGCCGGUCCCAAGCCCGGAUAAAAGUGGAGGGGGCUC reads 1.36.
AACACUGCCAAUGCGGGUCCCAAGCCCGGAUAAAAGUUGAGGGGGCGG: the self-cleavage stood at 0.0777.
Consider AACACUGCCAAUGCCGGUCCCAAGCCCGGAUAAAAGCGUAGGGGGCGG, for which the self-cleavage is 0.11.
As for AACACUGCCAAUGCCGGUCCCAACCCCGGAUAAAAGUGGAUGGGGCGG, the self-cleavage came out at 0.0978.
With AACACUGCCAAUGCCGGUCCCAAGCCCCGAGAAAAGUGGAGGGGGCGG, the self-cleavage is 0.739.
Turning to AACACUGCCAACGCCGGUCCCAAGCCCGGAUAAAAGUGGAGGGGGCAG, the self-cleavage came out at 0.785.
With AACACUGCCAAUGCCGGUCCCAAGCCCGAAUAAAAGUGGAGGGGCCGG, the self-cleavage is 0.249.
For the variant ACCACUGCCAAUGCCGGUCCCAAGCCCGGAGAAAAGUGGAGGGGGCGG, the self-cleavage is 0.177.
The result for AACACUGCCAAUGCCGGUCGCAAGCCCGGAUAGAAGUGGAGGGGGCGG reads 0.0756; that for AACACUGCCAAUGCCGGUCCCAAGACCGGUUAAAAGUGGAGGGGGCGG, 0.0882; that for AACACUGCCAAUGCCGGUCCCAAGCCCGGAUAAAGGUGGAUGGGGCGG, 0.283.
As to AACACUGCCAAUGCCUGUCCCAAGCCCGGAUACAAGUGGAGGGGGCGG, the self-cleavage came to 0.66.
For the variant AACACUGCCAAUGCCGGUCCGAAGCCCGGAUAGAAGUGGAGGGGGCGG, the self-cleavage came out at 0.03.
Turning to AACACUGCCAAUGCCGGUCCCAAGCCCGGAUAUGAGUGGAGGGGGCGG, the self-cleavage stood at 0.76.
With AACACUGCCAAUGCCGUUCCCAAGCCCGGAUAAAAGUGGAGGGGGCGG the figure was 0.497; with AACACUGCCAAUGCCGGUCCCAAGCACGGAUAAAACUGGAGGGGGCGG, 0.105.
Regarding AACACUGCCAAUGCCGGUCCCAAGCCCGGAUAAAAGUGGACGGGGCGA, the self-cleavage stood at 0.234.
In the case of AACACUGCCAAUGCCCGUCCCAAGCCCGGAUAAUAGUGGAGGGGGCGG, the self-cleavage stood at 0.207.
For AACACUGCCAAUGACGGUCCCAAGCCCGGAUAAAAGAGGAGGGGGCGG, the self-cleavage came to 0.711.
Consider AACACUGCCAAUGCCGGUUCAAAGCCCGGAUAAAAGUGGAGGGGGCGG, for which the self-cleavage was 0.0697.
As for AACACUGCCAAUGCCGGUCCCAAGCCCCGAUACAAGUGGAGGGGGCGG, the self-cleavage came to 0.745.
Turning to AUCACUGCCAAUGCCGGUCCCAAGCCCGGAUAAAAGUGGAGGGGGCGG, the self-cleavage came to 0.738.
With AACACUGCCAAUGCCGGUCCCAAGCCCGGAUAAAAGUGGAGGGGGAAG the figure was 1.03; with AACACUGCCAAUGCCGGUCCCAGGCCCGGAUAGAAGUGGAGGGGGCGG, 0.281; with AACACUGCCAAUGCCGGUCCCAAGCCCAGAUAAAAGUGGAGGGGGAGG, 0.682.
In the case of AACACUCCCAAUGCCAGUCCCAAGCCCGGAUAAAAGUGGAGGGGGCGG, the self-cleavage amounted to 0.0653.
In the case of ACCACUGCCAAUGCCGGUCCCGAGCCCGGAUAAAAGUGGAGGGGGCGG, the self-cleavage was found to be 0.0432.
The result for AACACUGCCAAUGCGGGUCCCAAGCCCGGAUAAAGGUGGAGGGGGCGG reads 0.0859; that for GACACUGCCAAUGCCGGUCCCAAGCCCGGAUAAUAGUGGAGGGGGCGG, 0.24.
For AAAACUGCCAAUGCAGGUCCCAAGCCCGGAUAAAAGUGGAGGGGGCGG, the self-cleavage came out at 0.101.
Regarding AACCCUGCCAAUGCCGGUCCCAAGCCCGGAUUAAAGUGGAGGGGGCGG, the self-cleavage came to 0.159.
With AACACUGCCAAUGCCGGUCCCGAGCCCGGAUAAAAGUGGAGGUGGCGG, the self-cleavage came to 0.101.
AACACUGCCAAUGCCGAUCCCAAGCUCGGAUAAAAGUGGAGGGGGCGG: the self-cleavage came out at 0.923.
With AACACUCCCAAUGGCGGUCCCAAGCCCGGAUAAAAGUGGAGGGGGCGG the figure was 0.0351; with AACACUGGCAAUGCCGGUCCCAAGCCCGGAUAAAAGUGUAGGGGGCGG, 0.129; with AACACUGCCAAUGCCGGUCCCAAGCCCAGAUAAAAGUGGAGGGGACGG, 0.653.
With AACACUGCCAAUGCCGGUCCCAAGCCCGGAUACAAGUGGAGGGGGGGG, the self-cleavage turned out to be 0.751.
For the variant AACACUGCCAAUGCCGGUCCCAAGCCCGUACAAAAGUGGAGGGGGCGG, the self-cleavage is 0.972.
On to AACACUGCCAAUGCCGGUCCCAAUCCCGGAUAAAAGUGAAGGGGGCGG, for which the self-cleavage came to 0.0948.
Consider AACACUGCCAAUGCCGGUCCUAAGCCCGGAUAAAAGUGGAGGGCGCGG, for which the self-cleavage turned out to be 0.0722.
The result for AACACUGCCAAUGCCGGUCUCAAGCCCGGAUAAAAGUGGAGAGGGCGG reads 0.935; that for AACACUGCCAAUGCCGGUCCCAAGCCCGGAUAAAAGUGGACGGGGCAG, 0.235.
With AACAGUGCCAAUGCCGGUCCCAAGCCCGGAUAAAAGUGGUGGGGGCGG, the self-cleavage is 0.0886.
The result for AACACUGCCAAUGCCGGUCCCAAACUCGGAUAAAAGUGGAGGGGGCGG reads 0.077; that for AUCACUGCCAAUGCCGGUCCCAAGCACGGAUAAAAGUGGAGGGGGCGG, 0.131; that for AACACUGCCAAUGCCGGACCGAAGCCCGGAUAAAAGUGGAGGGGGCGG, 0.395.
The result for AACACUGCCAAUGCCGGUCCCAACCCCGGAUAAAUGUGGAGGGGGCGG reads 0.0871; that for AACACUGCCAAUGCCGGUCCCAAUCCAGGAUAAAAGUGGAGGGGGCGG, 0.106; that for AACGCUGCCAAUGCCGGUCCCUAGCCCGGAUAAAAGUGGAGGGGGCGG, 0.69.
The result for AACACUGCCAAUGCCAGUCCCAAGGCCGGAUAAAAGUGGAGGGGGCGG reads 0.298.
Turning to AUCACUGCCAAUGCCGGUCCCAAGCCCGGAUAAAAGUGUAGGGGGCGG, the self-cleavage came out at 0.188.
For AACACUGCCAAUGUCGGUCCCAAGCCCGGAUAAAAAUGGAGGGGGCGG, the self-cleavage was found to be 0.789.
Consider AAGACUGCCAAUGCCGGUCCCAAGCCCGGAUAAAAGUAGAGGGGGCGG, for which the self-cleavage is 0.559.
Take AACACUGCCAAAGCCGGUCCCAAGCCCGGAUAAAAGUGGAGGGGGCCG: the self-cleavage was 0.751.
On to AACACUGCCAAUGCCGGUCCAAAGCCCGGAUAAAAGUGGAGGGGGCGG, for which the self-cleavage turned out to be 0.13.
With AACACUGCCUAUGCCGGUCCCAAGCCCGGAUAUAAGUGGAGGGGGCGG, the self-cleavage came out at 1.07.
Consider AGCACUGCCAAUGCCGGUCCCAAGGCCGGAUAAAAGUGGAGGGGGCGG, for which the self-cleavage was determined as 0.0917.
The result for GACCCUGCCAAUGCCGGUCCCAAGCCCGGAUAAAAGUGGAGGGGGCGG reads 0.0744; that for AACACUGCCAAUGCCGGUCCGAAGCCCGGAUAAAAGUGGAGGGGGCGU, 0.0902; that for AACACUGCCAAUGCUGGUCCCAAGCCAGGAUAAAAGUGGAGGGGGCGG, 0.105.
The result for AACACUGCCAAUGCCGGUUCCAAGCCCGGGUAAAAGUGGAGGGGGCGG reads 0.918; that for AACACUGCCAAUGCCGGUCCCAAACCCGGAUAUAAGUGGAGGGGGCGG, 0.0989; that for AACACGGCCAAUGCCGGUCCCAAGCCCGGAUAAAAGUGGAGGGGGAGG, 0.411.
The result for AACACUGCCAAUGCCGGUCCCAUGCCCGGAUAAACGUGGAGGGGGCGG reads 0.71; that for AACACUGCCAAUGCCGGUCCCAAGCCCGGAUAAAAUGGGAGGGGGCGG, 0.37; that for AACACGGCCAAUGCCGGUCCCAAGCCUGGAUAAAAGUGGAGGGGGCGG, 0.186.
As for AACAUUGCCAAUUCCGGUCCCAAGCCCGGAUAAAAGUGGAGGGGGCGG, the self-cleavage stood at 0.157.
For the variant ACCACUGCCAAUGCCGGUCCCAAGCCCGGAUAAAAGUGGAGGGGACGG, the self-cleavage is 0.0666.
On to AACACUGCCAAUGCCGGUCCCAUGCCCGGAUAAAAGUGGGGGGGGCGG, for which the self-cleavage amounted to 0.0874.
Regarding AACAAUGCCAAUGCCGGUCCCAAGCCCGGAUAAAAGUGGAGGGAGCGG, the self-cleavage was 0.556.
With AACACUGCCAAUGCCGGUCCCAAGCCCGGAUAAAAGCGGGGGGGGCGG the figure was 0.161; with AACACUGCCAAUGCCGGUCCCCAGCCCGGAUGAAAGUGGAGGGGGCGG, 0.879; with AACACUGCGAAUGCCGGUCCCAAGCCCUGAUAAAAGUGGAGGGGGCGG, 0.428.
The result for AACACUGCCAAUCCCGGUCCCAAGCCCGGAUAAAAGUGGAUGGGGCGG reads 0.0855; that for AACAAUGCCAAUGCCGGUGCCAAGCCCGGAUAAAAGUGGAGGGGGCGG, 0.0385.
The result for AACACGGCCAAUGCCGGUCCCAACCCCGGAUAAAAGUGGAGGGGGCGG reads 0.356.
With AACACUGCCAAUGCCGGUCCCAAGUCCGGAUAAAAGUGGAGGGCGCGG, the self-cleavage is 0.692.
For the variant AACACUGCCAAUGCCGGUCCCAAGCCCGGAUAAAAGUGGAAGGGCCGG, the self-cleavage turned out to be 0.151.
With AACACUGCCAAUGCCGGUCACAAGCCCGGAUAAAAGUUGAGGGGGCGG, the self-cleavage is 0.0791.
The result for AACACUGCCAAUGCCGGUCCCAAGCCCGUAUAAAGGUGGAGGGGGCGG reads 0.786.
The result for AACAGUGCCAAUGCCGGUCCCAAGCCCGGAUAGAAGUGGAGGGGGCGG reads 0.637.
In the case of AACAAUGCCAAUGCCGGUCCCAAGCCCGGAUAAAAGUGUAGGGGGCGG, the self-cleavage stood at 0.0872.
For the variant AACACUGCCAAUUCCGGUCCCAAGCCCGGAUAAAAGUGGAGGGGGGGG, the self-cleavage was 0.328.
Take AACACUGCCAAUGCCGGUCCCAAGCCCGGAAAAAAGUUGAGGGGGCGG: the self-cleavage was 0.692.
Take AACACUGCCAAUGCCGGUCCCAAGCCCGGAUAAAAGAGGACGGGGCGG: the self-cleavage came out at 0.178.
AACACUGCCAAUGCCGGUCCCAAGCCCGGAUAAAAGCGGAGGGCGCGG: the self-cleavage amounted to 0.738.
In the case of AACACUGCCAAUGCCGGUCCCAAGCCCGGAUAAAAGUAGAGGGGGCGG, the self-cleavage turned out to be 0.965.
AACGCUGCCAAUGCCGGUCCCAAGCCCGGGUAAAAGUGGAGGGGGCGG: the self-cleavage was 0.81.
As to ACCAUUGCCAAUGCCGGUCCCAAGCCCGGAUAAAAGUGGAGGGGGCGG, the self-cleavage was 0.0782.
Consider AACACUGCAAAUGCCGGUCCCAAGCCCGGAUACAAGUGGAGGGGGCGG, for which the self-cleavage is 0.603.
With AACACUGCCAAUGCCGGUCCGAAGCCCGGACAAAAGUGGAGGGGGCGG, the self-cleavage was found to be 0.0753.
In the case of AACAUUGCCAAUGCCGGUCCCAAGCCCGGAUAAAACUGGAGGGGGCGG, the self-cleavage is 0.785.
AACAAUGCCAAUGCCGGUCCCAAGCCCGGAUAAAAGUUGAGGGGGCGG: the self-cleavage amounted to 0.0941.
The result for AACACUGCCAAUGUCGGUCCCAAGCCUGGAUAAAAGUGGAGGGGGCGG reads 0.896.
With AACACUGCCAAUGCCGGUCCCAAGCCCGGAUAAAAUUGGAGGGGCCGG the figure was 0.199; with AACACUACCAAUGCCGGUCCCAAGCCCGGAUAACAGUGGAGGGGGCGG, 0.118.
As for AACACUGCCAAUGCCGGUCCCAAGCCCGGAUAAAAGUGUAGGGUGCGG, the self-cleavage amounted to 0.164.
On to AACACUGCCAAUACCGGUCCCAAGCCCGGACAAAAGUGGAGGGGGCGG, for which the self-cleavage worked out at 0.962.
As to AACACUGCUAAUGCCGGUCCCCAGCCCGGAUAAAAGUGGAGGGGGCGG, the self-cleavage turned out to be 0.779.
On to AACACUGCCAAUCCCGGUCCCAAGCCCGGAUAACAGUGGAGGGGGCGG, for which the self-cleavage is 0.0766.
Regarding AACACUGCCACUGCCGGUCCUAAGCCCGGAUAAAAGUGGAGGGGGCGG, the self-cleavage was 0.1.
Consider AACACUGCCAAGGCCGGUCCCAAGCCCGGAUAAAAGUGGCGGGGGCGG, for which the self-cleavage was 0.261.
Turning to AACACUGCCAAUGCCGGUCCCAAGCCCGGCUAAAAGUGGAGGCGGCGG, the self-cleavage stood at 0.103.
